Reference: a protein production outcome set (Wang et al. 2014)

Experiment: label from the status in PepcDB records
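Further: failed if final PepcDB status was selected cloned or expressed and not failed if soluble or beyond.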

| Sequence | protein production |
| --- | --- |
| MVGGGTVKKDLKKAIQYYVKACELNEMFGCLSLVSNSQINKQKLFQYLSKACELNSGNGCRFLGDFYENGKYVKKDLRKAAQYYSKACGLNDQDGCLILGYKQYAGKGVVKNEKQAVKTFEKACRLGSEDACGILNNY | failed |
| VGTIDQLVKRVIEGSLSPKERTLLKEDPAYWFLSDENSLEYKYYKLKLAEMQR | not failed |
| MKLSMQMLKKSSLIPSDLTDTLLLVGSGWDDYSFKTSFTVMHFGPDAKKTELGTTKIGYKDQQHGWTSEKFSTKNISLSDDFFSLGQDVDFYRKLQGGLSADAALAVLQALKDVIADPLRLEDVKNEQVFRESLMRNVSWSVIRDQFKRVLAGKPELTSFHFSYQTNGDEQRAGVDVSFKVTPHSLPSTNVHVLIGRNGVGKTTILNDMVETILSDTTGRPHCGKFLIYDSLGSEPMPTDYFSSVVSVSFSAFDPFLFPADQPDRSKGVAYFYVGMQSPGEGPGKRPPKTTEALTEDFITSLESCFSQESKRQRWVAAIKRLESDSNFEDMDLAHLNELPTDEAIVKAHRIFSRMSSGHSIVLLTLTKLVEAVEEKTLVLMDEPESHLHPPLLSAFTRAISDLLQDRNGVAIIATHSPVVVQEAPGSCVWKLTRLRAEGRADRPERETFGENAGVLTREIFGLEVNKSGYHEVLQEAVNRGGTFESILADYQEQLGFEAQAILRKMVASRRES | failed |
| EGYEQDFAVLTAEITSKIARVPRLPPDEKKQMVANVEKQLEEARELLEQMDLEVREIPPQSRGMYSNRMRSYKQEMGKLETDFKRSRIA | not failed |
| MGGLFVTPAKAVKTTNYAEEIAALQPGTTPEEIMKSASQIAKQQHVKQDVILKQFYKEITADKAEGDRLAKESGMSIMGGSSGTKKLPTSAKGNIYYTNSYTAYYNHGHVGMYSAADKIVESVPSDGVRQIAYNARDVEDNSIVQTVSVSSSQKTAAADWAVSKVGDPYSFNFVNNRNTGHDGAKNCSKLLWSAFLLKAGIDIDSNGGLGVYPRDITSSSYTTTIMTIYLEHHHHHH | failed |
| MVVNTLGRYFARRFVIASLGVFFGLFVLLVFVDYVDLLRRAGGLAVSAFYVAQASFCRVPQLLERLLPFCILIGGMTCYLALSRSLELVVARAAGLSAWEFISPALWSAIAIGIFATTVFNPLSAHMQERAKQMEAEMFGENTGGLQDANGFWMNQVSPDGQAIINAARSQQQGAVLTGITVFRFEPDFQFKDRIEAREAVLEPGHWLLKNVRRYTMDGAPVDQDTLELPTSLTLAQVRNSFATPESVSFWQLPTYIKSSENSGFATAGYRLQYHKLLAKPFLLAAMVMLAASVSLRFFRFGGVQKMVLSGVAAGFLLYILSKVTEDLSKAELMHPLAAAWLPVCVGGLAGFLALLYQEDG | failed |
| MRQTQVKSPYCHQSNYKLAIAIITVITGTVVTGATVTTGTAIMNGVKTAGGIMIMATIVAGISVKRMNVAIVKAGAIVTIIVEKAADMDTAIKHIRQWSTMPDATLARLIRPTNQLFNA | failed |
| MILELQNAILEMIAKGEPLAATIEQLCLKVEAAVPGIIASVLTFDGSRLHTLAGPSLPPDYSAAVDNLEAGPLAGSCGAAAYFGEAVVVTDIETDPRWQDFKSLVLPLGLKACWSSPIKRGERVIGSFAFYYRDHRGPKALERDLVEACVHLCTIAIDREERVMERQRLTYSDALTGLSNRARFNQLLAEDLPRSGRAWGILLVDIDNLKLVNDTFGHAAGDALIQVVADRVATTAGSQNTFRLGGDEFAVIVSDDKDLDLNARATDILKALSSPSTCDGHVVFPAATIGGALAETETNPDQTRQNADLALYHAKEHNRGRYVQHYPGLGTALTRRFRAVRDVGVALEDDRIDAHYQPILRLDTREIVGFEALCRMTTPSGEIIAAAHFHEATKDAHIAAELTQRMLLRVARDIRSWLARGLPLQHVGINLSAADFRGGNLQDRLCRIFGEAEVPLKHIILEVTESVYLGQRDYVVADEIKALRSKGLRVALDDFGTGYASLTHLLTVPVDIIKIDKSFIDRMVPGDAGTFIVEGLIGIADKLGIRVVAEGIETELQAVQLSQLGCKLGQGYLFSKAVDRTVAAAILEQHGQRLDQDKTRAGAL | failed |
| MDMKKHGLSIGINRIESVFFVTLKAIGTLTHEDYLVITPMLEGALSQVDQPKVSLFLDATELDGWDLRAAWDDLKLGLKHKSEFERVAILGNKDWQEWAAKIGSWFIAGEIKYFEDEDDALKWLRY | not failed |
| MSNKGSSDLRLLLSTLVISGLVAGLAYWQLSQHWTRSPDQNAGSPLHTPTSKWQKIALAMTLRGHEDEVNAIALSPDGNFLVSAGDDRRLYFWNLATGTALGQAKGHTDWIYALVMTPDGQTVISGSKDKTIKLWGVGDRQLQATLSGHQDFVNGLALSPDGRTLASASYDHTVKLWNVPSRQEITTLKANEGIMLSVAISRDGRFLATGGVDKLIRIWDLPSRRLLRTLEGHTSDVNSLAFTPDSSQLVSGSDKDGIKLWNLTTGELQQQFGTEGGQVFSVAVSPDGSTLASGHGDQTVKLWSLSGQLLRNLKGHSGAVYSVVFGQDQLISASEDKTIKVWRLFPETP | failed |
| MVKSDIIIVKNFHGVFCLNLVNEIFENKYKIIDILGKGGMSTVYLAKDIKLQKFWAIKEVSNNINDTSKLKVDLLAETNILKKLDHPALPRIVDIIKRDESLYIVMDFIDGVSLDKFIHKNGAINEKVVLDWAKQICDVLSYLHSQKPNPIIYRDMKPGNLMLTQNGKIKLIDFGIAREYKKEVSKDTTYIGTRGYAAPEQYGDCQSDARTDIYSFGVTLYHMLTGKGPNDPPFELKPVRELNSSLSEGIEHIIEKSTRQDPSLRYQNVDEMLYDIKNIHKLNSKYKKQLVKKYIKVAASACLFIFSVFLIISGVLGIKSDSANEYNNIIENGSKQNGDKAVEYFKQAVDKNSSNPKAYIKIIDTYLENGEYDQSIDFIETNLNNKQSELLKDNELLFKIGMAYFDDESYAKAYQYFNKIKGADISISEPLKYYKPVANALSKVDLQNKDKIVSSITQLEKYIDSRSDVDYKVESYITLAELYRDNPQIFPQNTDKEIGVLEKASSVSANKNNAILYGQLGQAYFDKASESKIEQDKYNFYLNKALDSYKNSIQMGSKISNTYCKLGLIYKYLGNTAESKNTFQKETQLFSDDYKGYMEMALLEYDSQQSAAPETRNYSEFVKYYNSTVSKKYNENDVDFMTLKQEYNDLKNQGVIK | failed |
| MLEEVERWLDARSWPAADRPVQHLLSAKHATGQSVSVVLPALDEEATVGDIVSVIRRELVLGVPLVDEIVVVDSGSSDRTSEVAAAAGARVVHRDAILPRIPAVPGKGEVLWRSLLVTGGDIVCFVDADLREFSADFVSGIVGPLLTDPDVHLVKAMYDRPLAGAAGQGGRVTELMARPLLNMHWPQLAGFVQPLGGEYAARRSLLERLPFPVGYGVELGMLVDALHLVGLDALAQVDVGVRVHRHQDGRALGRMAAAIYRTAQLRLARGHLVRPALTQFERGVDGFEPRTYAVDTEERPPMTEIAEYAARKVALEHHHHHH | not failed |
| MKLALVNRQVILPESGTESFQCHASTLVRLPCGTLVAAWFAGLREGSEDTAIWLSRYEHNIWTTPQRVAAREGEAHWNPVLFYPSDKLWLFYKVGSDVHVWKTWFITSSDRGFTWSTPAPLVNDDILPRGPVKNKLLLASNGAWIAPGSIESPERWRAFVDRSSDEGKHWSISFVPLEPDNAISGTNVALWDGIKKGRLWECCLENLLRWDGVIQPTLWESSPGHIHMLLRSTRGAIFRSDSIDYGATWSVARATSLPNNNSGIDLVSMQDGTLILALNPVNGNWGKRYPLSLIASQDNGESWLPLLDLESDHGEYSYPAIISEGGIVHITYTWNRKNIVYCRLQTVLEHHHHHH | failed |
| MLSRLSLLSNSRAFQQARWRIYRLKVSPTVHASQYHILSGRKLAQSIREKANDEIQAIKLKHPNFKPTLKIIQVGARPDSSTYVRMKLKASKDSNVDCIIEKLPAEITEVELLKKISDINDDDSIHGLLIQLPLPRHLDETTITNAVDFKKDVDGFHRYNAGELAKKGGKPYFIPCTPYGCMKLLEEAHVKLDGKNAVVLGRSSIVGNPIASLLKNANATVTVCHSHTRNIAEVVSQADIVIAACGIPQYVKSDWIKEGAVVIDVGINYVPDISKKSGQKLVGDVDFDSVKEKTSYITPVPGGVGPMTVAMLVSNVLLAAKRQFVESEKLPVIKPLPLHLESPVPSDIDISRAQSPKHIKQVAEELGIHSHELELYGHYKAKISPNIFKRLESRENGKYVLVAGITPTPLGEGKSTTTMGLVQALSAHLGKPSIANVRQPSLGPTLGVKGGAAGGGYAQVIPMDEFNLHLTGDIHAISAANNLLAAAIDTRMFHEATQKNDSTFYKRLVPRKKGIRKFTPSMQRRLKRLDIEKEDPDALTPEEVKRFARLNINPDTITIRRVVDINDRMLRQITIGEAATEKGFTRTTGFDITVASELMAILALSKSLHEMKERIGRMVIGADYDNKPVTVEDIGCTGALTALLRDAIKPNLMQTLEGTPVMVHAGPFANISIGASSVIADLMALKLVGSEKNPLNDKNIHEPGYVVTEAGFDFAMGGERFFDIKCRSSGLVPDAVVLVATVRALKSHGGAPNVKPGQSLPKEYTEENIDFVAKGVSNLVKQIENIKTFGIPVVVAINRFETDSQAEIEVIKKAALNAGASHAVTSNHWMEGGKGAVELAHAVVDATKEPKNFNFLYDVNSSIEDKLTSIVQKMYGGAKIEVSPEAQKKIDTYKKQGFGNLPICIAKTQYSLSHDPSLKGVPRGFTFPIRDVRASIGAGYLYALAAEIQTIPGLSTYAGYMAVEVDDDGEIEGLF | failed |
| MNGPAYEGGFKKFINGEFRMKAEKNLNKTRNISYAGLFFSLALTIFKLFAGLLGHSTALLADAVRSFSELINELVKLLDLSIAGKPEDWSHNYGHGKVATLVTGAGACVLLFAGIQSASLASGELLMFIQGKETEAPELFALSAAAFALVSKEIIPLFSRLAWKQTDKSLSETDIYTGNSRLKSLGLSCFVTLGIGCTFLPGKNWAVTDSLIAVLLSLYLLGSSGRLLYGTANELIEASLDEENNRKIREIINRTEGVLGSGELKTRRIGNGIAINACITVNSSLNIQEVAEIADLAEERLKKAYGEGIYTLIKAEPALERNCSFQKKPKISKEGGNKIIV | failed |
| MIVLGHRGYSAKYLENTLEAFMKAIEAGANGVELDVRLSKDGKVVVSHDEDLKRLFGLDVKIRDATVSELKELTDGKITTLKEVFENVSDDKIINIEIKEREAADAVLEISKKRKNLIFSSFDLDLLDEKFKGTKYGYLIDEENYGSIENFVERVEKERPYSLHVPYQAFELEYAVEVLRSFRKKGIVIFVWTLNDPEIYRKIRREIDGVITDEVELFVKLR | not failed |
| MPGAEKGPQPRRPDFTEAGVIQNRAAGRNRSPDPSPDGAQARRRSWRNQGAWLSFVAWPHRRGSATVEPPPLTLRQQLTTVRWLLTGLFAMMLLVFLYFGRDVLMPIVLALLLALMLSPIVRLLRRRKVPEGVAAVVVTLGFAAGMLLIGFTISGPVATWLEDAPSIGKRIAHKLSSLRESFDVVLDASRQVEEAADTSSKDNTDRVVMAQPGLLVKAADSLASGFTTFGVTIVITLFFLASGSMFTEKIVHVMPLFRDKLRVLRVVRDIETEVSSYLLTVAMINAGLGVAVGCALWLAGMPNAFLWGGMAMVLNFLPYIGSMIGISLVALVSFVTFDSLGQALIPPLSYLAVTSVEGQFLTPAIVGRRLELNALSVMLAVLFWAWLWGIVGALIAVPLLVVVKVVCSHFEGLAVVGEFLSARRPFSDQVKDGA | failed |
| MKASIEQLEPYVPEKPLATLQAELGLTELVRLSANENPYGTSPKVATAVKNWDFTQSNRYPDADAQELRQAVAQQQGIDPNSIVFSVGLDEMIVMLSRTFLATNDQVLVSAPTFSEYGLHAEIEGGQLISVPTLPNDHVNFEGLMKAITPHVKMVWLCNPNNPTGTVESLAAIEAFVQQVPPETMVLIDEAYIDFTPGAAQVTAMQLPAKYPNVVVMRTFSKAYGLANFRIGYAVFNTKYAATMQTIRLPYNVNSLAQVAALAAIDDPNFVKQTVQKNATERAKWMAFFDDQGVTYDQSGANFIFFKYPSATQLADYLVHHGYLIRTGLRPGWLRLTVGTANDNQQLQQLIREFKA | failed |
| MNFNQFENQNFFNGNPSDTFKDLGKQVFNYFSTPSFVTNIYETDELYYLEAELAGVNKEDISIDFNNNTLTIQATRSAKYKSEQLILDERNFESLMRQFDFEAVDKQHITASFENGLLTITLPKIKPSNETTSSTSIPIS | failed |
